According to patent US20130177556:
Where two headings read alike, the source gives them in different places.

Legend:
[1] = target: EGFR on A549 cells (Homo sapiens) (UniProt P00533)
[2] = target: EGFR extracellular domain (EC-EGFR) (Homo sapiens) (UniProt P00533); assay: filter; details: 2'-F pyrimidines (all C and U); PBS, 0.01% BSA, 37 C, 15 min; scrambled background subtracted
[3] = target: EGFR on A549 cells (Homo sapiens) (UniProt P00533); assay: cell_activity; details: 2'-F pyrimidines (all C and U); inhibition of EGF-dependent EGFR phosphorylation in A549, 200 nM aptamer

Row | Sequence | Kd ([1]; 2'-F pyrimidines (all C and U), binding to whole A549 cells, radiolabelled aptamer) [nM] | Kd [2] [nM] | activity [3] [% inhibition] | Kd ([1]; 2'-F pyrimidines, Kd stated for full-length CL4, whole A549 cells implied) [nM]
1 | GCCUUAGUAACGUGCUUUGAUGUCGAUUCGACAGGAGGC [CL4 42-81] | 38 | 10 | 60 | –
2 | GGGAGACAAGAAUAAACGCUCAACGACACGUUGCCAGCCGGAGCCUUAGUAACGUGCUUUGAUGUCGAUUCGACAGGAGGCUCACAACAGGC [CL4] | – | – | – | 46
